This data set deals with CsrA-H6 (Escherichia coli (K-12 MG1655?)). Kind of data set: EMSA. As to conditions: apparent Kd, EMSA: 0.08-0.2 nM RNA, 10 mM MgCl2, 100 mM KCl, 32.5 ng SUPERase In, 37 C 30 min, footprint: 2 nM RNA, 10 mM Tris-HCl pH 7.5, 10 mM MgCl2, 100 mM KCl, 40 ng …. On the technique in general: In EMSA bound probe runs differently from free probe, usually more slowly.

In the case of evgA 5' leader (EMSA), the Kd (two shifted species) worked out at 7 nM.
For the substance gadA 5' leader (EMSA), the Kd (two shifts) amounted to 73 nM.
Same read-out and setting: in the case of gadB 5' leader (EMSA) it was 49 nM.
As to gadE 5' leader (EMSA), the Kd was 138 nM.
Regarding ydeO 5' leader (EMSA), the Kd (binds both conformers) worked out at 84 nM.

For the origin of these results see article PMC11210196.
